In patent publication US20210324058A1 (BRIGHAM AND WOMEN S HOSPITAL, published 2021):

Legend:
[1] = target: T1, recombinant human NEDD9 (neural precursor cell expressed, developmentally down-regulated 9), OriGene TP307200 (human, UniProt Q14511 1-834); assay: microscale thermophoresis, labelled NEDD9 20 nM, P-Selectin titrated
T1 construct: Bought recombinant protein; In microscale thermophoresis it was labelled with the dye NT-647-NHS; also called recombinant NEDD9; purified human NEDD9
T1 sequence (looked up): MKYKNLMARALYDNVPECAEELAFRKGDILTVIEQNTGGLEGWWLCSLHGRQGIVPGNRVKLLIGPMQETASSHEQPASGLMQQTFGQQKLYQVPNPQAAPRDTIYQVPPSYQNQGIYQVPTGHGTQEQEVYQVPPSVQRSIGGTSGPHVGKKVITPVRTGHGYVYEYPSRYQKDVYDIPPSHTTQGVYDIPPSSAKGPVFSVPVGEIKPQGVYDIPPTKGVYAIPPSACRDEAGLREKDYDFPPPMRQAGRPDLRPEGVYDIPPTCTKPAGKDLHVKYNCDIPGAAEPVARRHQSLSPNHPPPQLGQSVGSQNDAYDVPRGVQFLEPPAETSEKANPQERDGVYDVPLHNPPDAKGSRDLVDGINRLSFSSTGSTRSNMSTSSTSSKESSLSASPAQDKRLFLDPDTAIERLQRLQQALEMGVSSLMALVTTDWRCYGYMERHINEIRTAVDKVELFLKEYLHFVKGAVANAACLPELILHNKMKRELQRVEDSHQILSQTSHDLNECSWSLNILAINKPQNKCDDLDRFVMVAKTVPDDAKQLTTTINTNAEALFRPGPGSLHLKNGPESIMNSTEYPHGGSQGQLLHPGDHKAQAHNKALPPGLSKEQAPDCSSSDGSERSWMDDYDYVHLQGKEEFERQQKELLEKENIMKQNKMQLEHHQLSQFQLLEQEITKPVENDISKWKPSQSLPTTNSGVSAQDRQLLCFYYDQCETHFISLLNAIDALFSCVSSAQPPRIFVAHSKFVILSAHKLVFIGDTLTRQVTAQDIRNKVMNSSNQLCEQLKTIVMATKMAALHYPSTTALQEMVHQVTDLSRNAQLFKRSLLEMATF
Experimental: (§1) FIGS. 4A-E. P-Selectin binds the NEDD9 substrate domain. (A) HPAEC plasma membrane fractions were incubated with recombinant P-Selectin (0.5-1.0 μg), and liquid chromatography-mass spectrometry (LC-MS) was performed on samples following anti-P-Selectin immunoprecipitation. The MS2 spectra for each of the two detected NEDD9 peptide sequences, both within the substrate domain, are shown: K.[…].D (AA: 91-102; SEQ ID NO:9) (m z 677.36735 at retention time […]) (N9-P1) and K.[…].G (AA: 191-211; SEQ ID NO:10) (m/z 808.77731 at retention time […]) (N9-P2) (N=2 replicates for N=2 iterations). Underlining indicates a YxxP sequence. (B) HPAEC plasma membrane fractions were incubated with exogenous P-Selectin and co-immunoprecipitation for P-Selectin and NEDD9 was performed. PM, plasma membrane; UN, untreated. Varying concentrations of P-Selectin (ligand) (2 μM-0.5 nM) were co-incubated with NEDD9 (receptor) (20 nM) and microscale thermophoresis was performed to assess macromolecular interactions between these proteins. […]
(§2) Microscale Thermophoresis. […] In preliminary studies, we determined that Tris buffer containing 10% glycerol, 1% BSA, 0.05% Tween-20 and 5 mM DDT was an optimal buffer to minimize sample aggregation and adsorption in the capillary tube.³⁹ For experiments, NEDD9 (20 nM) was incubated with decreasing concentrations of P-Selectin (2 μM-0.5 nM) and MST scan was performed.

[2] = target: T1, recombinant human NEDD9 (neural …); assay: microscale thermophoresis; dye-labelled NEDD9 20 nM, P-Selectin titrated 2 µM-0.5 nM, N=2
Experimental: as §1, §2

[3] = target: T2, endogenous human NEDD9 of human pulmonary artery endothelial cells (lysates and plasma membrane fractions) (human, UniProt Q14511 1-834, limits assumed); assay: co-immunoprecipitation from HPAEC plasma membrane fractions incubated with recombinant P-Selectin for 1 hr
T2 construct: Endogenous protein in cell material; also called NEDD9 in HPAECs; NEDD9 p55 fragment
T2 sequence (looked up): T1 sequence (looked up)
Experimental: Magnetic beads (Bio-Rad SureBeads) were resuspended in 100 μl solution (1 mg at 10 mg/mL), magnetized, and serially washed with 1 mL PBS+0.1% Tween 20 (PBS-T). Primary antibody (10 μg) (Table 2) was added to the resuspended beads in a final volume of 200 μl and rotated at room temperature for 10 min. The beads were then magnetized and serially washed with 1 mL PBS-T before incubation with the antigen-containing HPAEC plasma membrane lysate (250-500 μl) plus recombinant P-Selectin (R&D Systems) (0.5-1.0 μg) for 1 hr at room temperature. In the cell-free immunoprecipitation experiment, the antibody-labeled beads were incubated with recombinant NEDD9 (Origene)³⁹ (5 ng) and recombinant P-Selectin (5 ng) in the presence of IgG₁ control, msAb-N9-P1 (10-20 uM), or msAb-N9-P2 (10-20 μM) for 1 hr at room temperature. […]
Next, LC-MS was performed on in-gel trypsin-digested lysates, and identified only two NEDD9 peptide sequences, both within the substrate domain: K.[…].D (AA: 91-102; SEQ ID NO:9) (N9-P1) and K.[…].G (AA: 191-211; SEQ ID NO:10) (N9-P2) (N=2 replicates for N=2 iterations) (FIG. 4A). […] Plasma membrane fractions from HPAECs were incubated with V-control or exogenous (recombinant) P-Selectin for 1 hr, and P-Selectin-NEDD9 complex formation was assessed by co-immunoprecipitation.

B1: recombinant P-Selectin/CD62P, R&D Systems ADP3-200 (other, human, UniProt P16109 42-771, looked up)
chain: WTYHYSTKAYSWNISRKYCQNRYTDLVAIQNKNEIDYLNKVLPYYSSYYWIGIRKNNKTWTWVGTKKALTNEAENWADNEPNNKRNNEDCVEIYIKSPSAPGKWNDEHCLKKKHALCYTASCQDMSCSKQGECLETIGNYTCSCYPGFYGPECEYVRECGELELPQHVLMNCSHPLGNFSFNSQCSFHCTDGYQVNGPSKLECLASGIWTNKPPQCLAAQCPPLKIPERGNMTCLHSAKAFQHQSSCSFSCEEGFALVGPEVVQCTASGVWTAPAPVCKAVQCQHLEAPSEGTMDCVHPLTAFAYGSSCKFECQPGYRVRGLDMLRCIDSGHWSAPLPTCEAISCEPLESPVHGSMDCSPSLRAFQYDTNCSFRCAEGFMLRGADIVRCDNLGQWTAPAPVCQALQCQDLPVPNEARVNCSHPFGAFRYQSVCSFTCNEGLLLVGASVLQCLATGNWNSVPPECQAIPCTPLLSPQNGTMTCVQPLGSSSYKSTCQFICDEGYSLSGPERLDCTRSGRWTDSPPMCEAIKCPELFAPEQGSLDCSDTRGEFNVGSTCHFSCDNGFKLEGPNNVECTTSGRWSATPPTCKGIASLPTPGVQCPALTTPGQGTMYCRHHPGTFGFNTTCYFGCNAGFTLIGDSTLSCRPSGQWTAVTPACRAVKCSELHVNKPIAMNCSNLWGNFSYGSICSFHCLEGQLLNGSAQTACQENGHWSTTVPTCQAGPLTIQEA
notes: Bought recombinant protein; Species is read from 'Purified human NEDD9 and P-Selectin/CD62P'; also called exogenous P-Selectin
[1]
  EC50 (read off the curve): ~60 nM
[2]
  Kd: 13.9 nM
[3]
  fold increase of NEDD9:P-Selectin complex formation against V-control: 3 fold
